The numbers were not newly measured in article PMC4155411, which cites them from elsewhere.

The data set addresses HPr (Escherichia coli) (UniProt P0AA04). Put plainly: PRE NMR titration.

In the case of “Enzyme I N-terminal domain (EIN) N-terminal domain (from UniProt P08839)”, the Kd is 7 µM.

One may read the Kd as the concentration at which binding is half-saturated.
